Data as given in paper PMC4974071.
Numbering of substitutions follows the chain as printed.

T1: BCL11A-S (short isoform of BCL11A), wild-type, Q9H165-3
T1 chain: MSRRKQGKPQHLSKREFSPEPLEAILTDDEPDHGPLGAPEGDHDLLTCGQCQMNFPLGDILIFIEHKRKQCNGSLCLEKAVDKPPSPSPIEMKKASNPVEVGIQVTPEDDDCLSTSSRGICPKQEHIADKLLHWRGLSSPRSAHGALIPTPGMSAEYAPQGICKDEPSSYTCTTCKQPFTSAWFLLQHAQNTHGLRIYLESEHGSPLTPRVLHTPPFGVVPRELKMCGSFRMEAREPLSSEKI

T2: BCL11A-L (long isoform of BCL11A), wild-type, Q9H165-2
T2 chain: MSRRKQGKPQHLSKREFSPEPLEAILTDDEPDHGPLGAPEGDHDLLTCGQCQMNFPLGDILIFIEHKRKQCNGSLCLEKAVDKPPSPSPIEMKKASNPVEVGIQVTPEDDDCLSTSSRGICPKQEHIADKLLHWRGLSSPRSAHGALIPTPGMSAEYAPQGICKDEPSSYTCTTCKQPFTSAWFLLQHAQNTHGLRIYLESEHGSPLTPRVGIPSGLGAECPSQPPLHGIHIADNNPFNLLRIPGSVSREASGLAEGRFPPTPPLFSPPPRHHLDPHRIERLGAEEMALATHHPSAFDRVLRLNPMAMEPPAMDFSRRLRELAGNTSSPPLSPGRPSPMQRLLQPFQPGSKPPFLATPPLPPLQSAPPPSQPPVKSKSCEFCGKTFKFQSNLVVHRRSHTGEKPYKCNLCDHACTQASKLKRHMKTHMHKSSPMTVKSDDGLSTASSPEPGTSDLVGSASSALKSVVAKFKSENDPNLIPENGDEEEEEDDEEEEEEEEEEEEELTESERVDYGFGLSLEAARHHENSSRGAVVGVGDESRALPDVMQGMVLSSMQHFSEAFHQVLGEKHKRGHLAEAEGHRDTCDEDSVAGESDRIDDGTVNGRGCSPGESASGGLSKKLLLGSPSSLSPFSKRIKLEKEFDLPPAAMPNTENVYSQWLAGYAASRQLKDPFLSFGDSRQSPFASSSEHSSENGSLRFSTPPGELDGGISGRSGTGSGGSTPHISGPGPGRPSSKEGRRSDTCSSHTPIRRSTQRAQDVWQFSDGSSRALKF

B1: BCL11A-L (long isoform of BCL11A), wild-type, Q9H165-2 p.His66Gln (protein)
chain: T2 chain with H66Q
B2: BCL11A-L (long isoform of BCL11A), wild-type, Q9H165-2 p.Cys48Phe (protein)
chain: T2 chain with C48F
B3: BCL11A-L (long isoform of BCL11A), wild-type, Q9H165-2 p.Thr47Pro (protein)
chain: T2 chain with T47P

Target: T1, BCL11A-S (short isoform of BCL11A), …
Assay: BRET assay
Conditions: chain shown with the change; HEK293 cells; donor Renilla luciferase fusion, acceptor YFP fusion; n = 3; parent: est. 0.36; read off a plot

Row | response | Binder
1 | 0.013 | B1
2 | 0.009 | B2
3 | 0.001 | B3

Target: T2, BCL11A-L (long isoform of BCL11A), …
Assay: BRET assay
Conditions: chain shown with the change; HEK293 cells; donor Renilla luciferase fusion, acceptor YFP fusion; n = 3; parent: est. 0.30; read off a plot

Row | response | Binder
4 | 0.11 | B1
5 | 0.065 | B2
6 | 0.11 | B3
